Assay results as given in article PMC6335408.
Each block holds one substance with its values, some of them ahead of it.

Experiments:
GST-Ubl45 (immobilised) [1] = target: GST-Ubl45 (immobilised) (UniProt Q93009); test: SPR; around 50 units of Ubl45 immobilised, titration range of p53Ub-bound TCD flowed over; equilibrium fit
[2] = target: USP7 catalytic domain CD (Homo sapiens) (UniProt Q93009); test: activation assay; settings: cited from earlier work
[3] = target: USP7 C-terminal tail peptide (residues 1083-1102), biotinylated (UniProt Q93009); test: SPR; N-terminally biotinylated C-terminal tail peptide immobilised (~30 RU) on SA chip, CD or CDUb flowed over; Biacore T200, 25 °C; same running buffer
GST-Ubl45 (immobilised) [4] = target: GST-Ubl45 (immobilised) (UniProt Q93009); test: SPR; GST-Ubl45 or GST-Ubl45ΔC captured by anti-GST antibody on CM5 chip, covalent CDUb flowed over; Biacore T200, 25 °C; same running buffer; equilibrium fit and EvilFit
USP7 CD12345^ΔC = USP7 CD12345^ΔC (UniProt Q93009)
[5] = target: USP7-TCD (TRAF domain and catalytic domain, lacks all Ubl domains)
full-length (FL) USP7 = full-length (FL) USP7 (UniProt Q93009)
[6] = target: USP7 CD12345 (catalytic domain with Ubl domains 1-5 and tail, no TRAF domain) (UniProt Q93009)
[7] = target: USP7 catalytic domain (CD)
[8] = target: USP7-TCD (TRAF domain and catalytic domain, lacks all Ubl domains); test: covalent suicide-probe reaction (preparative); 120 µM CD (or TCD) incubated overnight with an excess of probe and Ubl45 (both 150 µM) under dialysis against 20 mM HEPES pH 7.5, 50 mM NaCl, 2 mM DTT
[9] = target: USP7 catalytic domain (CD); test: as above
[10] = target: USP7 CD45 (catalytic domain linked to Ubl45); test: SEC-MALS; Superdex 200 in 20 mM HEPES pH 7.5, 100 mM NaCl, 1 mM DTT, in-line MALLS; CD45 100 µL of 45 µM, FL 80 µL of 20 µM loaded
[11] = target: TAMRA-labelled p53 peptide (UniProt P04637); test: fluorescence polarisation; 25 nM TAMRA-p53 peptide with a dilution series of USP7 constructs; plate reader; 20 mM HEPES pH 7.5, 100 mM NaCl, 1 mM DTT, 1 mM EDTA, 0.05% Tween-20

Substance: USP7 C-terminal peptide C-terminal tail (from UniProt Q93009)
Kd [2]: 1000 µM

Substance: CDUb (USP7 catalytic domain covalently coupled to ubiquitin through Ub-PA) (from UniProt P0CG48 1-76) (complex)
Kd [3]: 2.6 µM
Kd (GST-Ubl45 (immobilised) [4]): 0.59 µM
koff (GST-Ubl45 (immobilised) [4]): 0.8 s⁻¹

Substance: USP7 CD12345^C223A (from UniProt Q93009 1-1102) (domain or fragment)
apparent KD (K (D,app)) from activation of CD12345^ΔC (20 nM) DUB activity on UbRho, titration of CD12345^C223A (USP7 CD12345^ΔC): 60 µM

Substance: USP7 Ubl45 (last two Ubl domains with the activating C-terminal tail) (from UniProt Q93009 890-1102) (domain or fragment)
apparent KD from in trans activation of CD (20 nM) DUB activity on UbRho, titration of Ubl45 [7]: 110 µM

Substance: p53UbVA (covalently binding, vinylamide-linked ubiquitinated p53 peptide, res. 357-389) (from UniProt P04637 357-389; P0CG48 1-76)
percent reacted with the probe [8]: 100%

Substance: ubiquitin-propargyl (Ub-PA) suicide probe (from UniProt P0CG48 1-76)
percent of CD reacted with the probe [9]: 80%

Substance: USP7 CD45 (catalytic domain linked to Ubl45) (domain or fragment)
stoichiometry N [10]: 2

Second part, the substance after the results:

Kd (GST-Ubl45 (immobilised) [1]): 2.9 µM
Substance: TCD-p53Ub (USP7-TCD covalently bound to the p53UbVA probe) (from UniProt P04637 357-389; P0CG48 1-76) (complex)

IC50 of inhibition of UbRho hydrolysis by p53Ubinh (TCD 200 nM): fold by which the IC50 of FL is better than that of TCD [5]: 60 fold
IC50 of inhibition of UbRho hydrolysis by p53Ubinh (FL 0.35 nM, UbRho 0.4 µM) (full-length (FL) USP7): 0.016 µM
IC50 of inhibition of UbRho hydrolysis by p53Ubinh (CD12345 0.35 nM): fold by which the IC50 of FL is better than that of CD12345 [6]: 60 fold
Substance: p53Ubinh (non-hydrolysable, triazole-linked ubiquitinated p53 peptide) (from UniProt P04637 357-389; P0CG48 1-76)

Kd [11]: 0.16 µM
Substance: full-length (FL) USP7 (from UniProt Q93009 1-1102) (enzyme)
